The series deals with Bacillus subtilis DB104 (SP-AmyQ fusion secretion). The experiment in a line: AmyQ secretion efficiency, weighted average sort bin (1 = best secretion, 10 = worst) (bin number (weighted average, 1-10)); higher = lower secretion efficiency. Summed up:
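Secretion score gives the read-frequency-weighted average bin number, normalised to beads per bin, with low-abundance sequences left out. A B. subtilis DB104 library expressing mature AmyQ fused to designed signal peptides, integrated at amyE, was encapsulated with fluorescein-starch at about 0.3 cells per ~65 nL alginate bead. Beads were grown about 13 h at room temperature, stained with nile red, and the occupied ones were sorted by large-particle flow cytometry into 10 equally populated bins by green/red fluorescence ratio before the amplicons from each bin were Illumina-sequenced.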

Several values for one entry are separate records, joined by “and”; a condition that tells them apart may be missing. Equal entries are not always repeated.

As to MLKKKWMVGLLAGCLAAGGFSYNAFFTEN, the AmyQ secretion efficiency was found to be 6.5.

For the sequence MFKRGIQAFAGGIILATAVLAAVFYLTDEDQAAAV, the AmyQ secretion efficiency was 5.98.

As for MKQFAITLSVLCALILLVPTLLVIPFQHNKEAMASV, the AmyQ secretion efficiency came out at 6.87.

With MKKRKVLTGSVLSLGLLVSASPAFATSP, the AmyQ secretion efficiency worked out at 1.37.

As for MKRFILVLSFLSIIVAYPIQVNASPM, the AmyQ secretion efficiency amounted to 3.06.

Sequence MLKRTSFVSSLFISSAVLLSILLPSGQGHAQSA came in with an AmyQ secretion efficiency of 1.31.

The sequence MKKGIIRFLLVSFVLFSTGITGVQAAPA registered an AmyQ secretion efficiency of 2.37.

MKRSISIFITCLLITLLTMGGMIASPASTAGT showed an AmyQ secretion efficiency of 4.46.

In the case of MKKKQVMLALTAAAGLGLTAHSAPAAKAAPL, the AmyQ secretion efficiency was 2.01.

As to MNLRKILLSSALSLGMLVSAAPLLATSS, the AmyQ secretion efficiency came to 4.04.

MSKAAAVLLSLGLVFGFSYGAGHVAEAKTK came in with an AmyQ secretion efficiency of 2.88.

In turn, MKRFSTAYLLLGILCSAAVFLIGAPSRALGAPK had an AmyQ secretion efficiency of 1.81.

MKIRKILLSSALSFGMLKKRRKKALAAGT: the AmyQ secretion efficiency stood at 6.86.

MKLWMRKTLVVLFTIVTFGLVSPPAALMSDKP: the AmyQ secretion efficiency was found to be 3.94.

MMTTIFAFLTGLMMFGTITAASASPD had an AmyQ secretion efficiency of 4.48.

MKLAKRVSALTPSTTLAITGFVGSTTFTAPTAKAKEL registered an AmyQ secretion efficiency of 6.19.

MRKKLKWLSFLLGFIILLFLFKYQFSSNDS gave an AmyQ secretion efficiency of 5.44.

In the case of MKNMSCKLVVSVTLFFSFLTIGPLQHAQNS, the AmyQ secretion efficiency stood at 5.15.

In turn, MKKSTRKYKILGALGTSYISADSS returned an AmyQ secretion efficiency of 7.69.

For the sequence MNITIMSFVAVAALSTTAFGAHASAKEI, the AmyQ secretion efficiency is 3.64.

As for MTMLRKIIGWILLLCIIPLFAFTVIQSGKEV, the AmyQ secretion efficiency is 6.03.

The sequence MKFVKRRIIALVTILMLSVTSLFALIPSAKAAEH displayed an AmyQ secretion efficiency of 2.54.

Sequence MKKAAAVLLSLGLVFGFSYGAGHVHEAKTK yielded an AmyQ secretion efficiency of 5.32.

For the sequence MSFIIIPMTLALGAALTIAPLSFASAEEN, the AmyQ secretion efficiency worked out at 6.39.

Sequence MRNLTKTSLLLAGLCTAAQMVFVTHCSAEES yielded an AmyQ secretion efficiency of 2.79.

Consider MKLAKRVSALTPSTTLAITAKEKEL, for which the AmyQ secretion efficiency amounted to 7.18.

Take “MKFVKRRIIALVTILMLSVTSLFALQPSFTPSPFFTVAKAAEH”: the AmyQ secretion efficiency is 2.95.

Sequence MKRLLLGILCSAAVFLIGAPSRALGAEV displayed an AmyQ secretion efficiency of 2.5.

MNKFLKSNRFLLAAALGISLLASSNFIKASND showed an AmyQ secretion efficiency of 4.66.

As for MKKKIVALLAVIAVVSGSSMAAAPAEAKTI, the AmyQ secretion efficiency worked out at 3.11.

On to MKLAKRVSALTPSTTLAITAKAARK, for which the AmyQ secretion efficiency amounted to 7.54.

Sequence MKKKQVMLALTAAAGLGLTALHSAPAAKVAPL registered an AmyQ secretion efficiency of 6.92.

Consider MRKSLITLGLASFTILVIGTSSFLIPFTSKTASAETL, for which the AmyQ secretion efficiency worked out at 1.81.

The sequence MKKIWIGMLAAAVLLLTKPKESLADAA returned an AmyQ secretion efficiency of 3.56.

Regarding MAIIIAIIAAVIVIAALITFNVRNHSPG, the AmyQ secretion efficiency worked out at 6.69.

For MSMMSKLSLGVASAALGLALVGGGTWAAFN, the AmyQ secretion efficiency worked out at 5.67.

Sequence MRSKKLWISLLFALTLIRKRKKRNMSAQAAGK displayed an AmyQ secretion efficiency of 9.84.

Sequence MKRFLIGAGVAAVILSGWTIADHQTHSQEM registered an AmyQ secretion efficiency of 5.66.

MKNMSCKLKKSVTLFFSFLTIGPLAHAQNS: the AmyQ secretion efficiency was determined as 3.34.

On to MKKWMITIAMLILAGIALFVFISPRKSHKT, for which the AmyQ secretion efficiency was 4.44.

In turn, MTKKAWFLPLVCVLLISGWLAPAASASTQTT gave an AmyQ secretion efficiency of 2.01.

As for MTMLRKIIGWILLLCIIATPLFAFTVIASGKEV, the AmyQ secretion efficiency is 5.08.

The sequence MRPVFPLILSAVLFLSCFFGARQTEASASED showed an AmyQ secretion efficiency of 3.13.

MKKRLIAPMLLSAASLAFFAMSGSAQKAAY gave an AmyQ secretion efficiency of 6.67.

In the case of MYKKFVPFAVFLFLFFVSFEMMENPHALDY, the AmyQ secretion efficiency was 7.08.

On to MNLRKILLSSALSLGMLVSAAPVLNTSS, for which the AmyQ secretion efficiency is 5.87.

With MKKRFSLIMMTGLLFGLTSPTFAAEK, the AmyQ secretion efficiency worked out at 3.56.

For MKKTIMSFVAVAALSTTAFGAHASAATI, the AmyQ secretion efficiency turned out to be 2.11.

Turning to MKRRRRPMRLALGAALTIAPLSFASAEEN, the AmyQ secretion efficiency is 5.86.

In turn, MKKKLAAGLTASAIVGTTLVVTPTEAATI showed an AmyQ secretion efficiency of 2.75.

MPYLKRVLLLLVTGLFMSLFAVTATASCQTG gave an AmyQ secretion efficiency of 1.26.

MKRLFMKSMASLVLFAVVFVFAVKGAPAKAETH yielded an AmyQ secretion efficiency of 2.

Regarding MGLGTTFLSVAVAASFMSLSISLPGVQAAEG, the AmyQ secretion efficiency stood at 2.45.

MMKKLFHSTLIVLLFFSFFGVIPIHAKKQ came in with an AmyQ secretion efficiency of 1.92.

MLTKRLLTIYIMLLGLIAWFPGAIQAEEK: the AmyQ secretion efficiency was 2.08.

In turn, MKKWIYTVLVLSIAGIGGFSVHAASS registered an AmyQ secretion efficiency of 6.39.

Regarding MKKWMAGLFLAAAVLLCLMVPQQIQFASS, the AmyQ secretion efficiency turned out to be 5.75.

Consider MKRRRQRQTTLPLLIVCLAFSSFSASARAASE, for which the AmyQ secretion efficiency was 3.83.

With MLKRTSFVSSLFISSAVLLSILRRKRRRAHAQSA, the AmyQ secretion efficiency stood at 7.6.

In turn, MKVCQKSIVRFLVSLIIGTFVISVPFMANARKR gave an AmyQ secretion efficiency of 3.31.

In the case of MKWMCSICCAAVLLAGGAAQARRK, the AmyQ secretion efficiency worked out at 6.49.

In the case of MKKRLIAPMLLSAASLAFFAEEEEDEAQAAAY, the AmyQ secretion efficiency was 3.9.

The sequence MNFKKTGVSALSISALALSVSGVASAHEI came in with an AmyQ secretion efficiency of 3.9.

Consider MKKRLIGFLVLVPALIMSGITLIEANKK, for which the AmyQ secretion efficiency was 5.85 and 6.63 and 6.16.

As to MAIIIAIIAAVIVIAALITFNVGGSPVVSTSTARNASPG, the AmyQ secretion efficiency was determined as 3.35.

In the case of MKLSVKIAGVLTVAAAAMTAKMYATDKGN, the AmyQ secretion efficiency stood at 5.75.

The sequence MTKKAWFLPLVCVLLISGWLAPAASASRQTT came in with an AmyQ secretion efficiency of 1.94.

For MRFTKFMSIVVGFLSVLGLAAVFPLTAQAEKA, the AmyQ secretion efficiency turned out to be 2.72.

The sequence MTKKAWFLPLVCVLLISGWLAPAASASWQTT gave an AmyQ secretion efficiency of 3.5.

Take MRGKSAVLLSLIMLIAGFLISFSFQD: the AmyQ secretion efficiency was found to be 6.77.

Turning to MKRLCLWFTVFSLFLVLLPGKALGKKR, the AmyQ secretion efficiency was 2.36.

As to MKSKWMSGLLLVAVGFSFTQVMVHAGET, the AmyQ secretion efficiency was 6.97 and 4.43 and 7.09.

On to MLFNTSFVSSLFISSAVLLSILLPSGQAHAQSA, for which the AmyQ secretion efficiency is 2.42.

MRSYIKVLTMCFLGLILFVPTALAEEE displayed an AmyQ secretion efficiency of 2.15.

Sequence MKKWMITIAMLILAGIALFVFISPTKSHKT gave an AmyQ secretion efficiency of 7.06.

With MRSYIKVLTMCFLGLILFVPTYLADNS, the AmyQ secretion efficiency amounted to 7.74.

Sequence MMKKLFHSTLIVLLFFSFFGVQIHAKKQ came in with an AmyQ secretion efficiency of 2.18.

MLKKKWMVGLLAGCLAAGGFSYNHFATEN: the AmyQ secretion efficiency was determined as 6.62.

Turning to MSTKQVMLALTAAAGLGLTALHSAPAAKAAPL, the AmyQ secretion efficiency was 2.43.

In turn, MMKKLFHSTLIVLLFFSFFGVQPIHAATR gave an AmyQ secretion efficiency of 2.55.

MRKNRLLLNILALFVLSLGLLSFMVTPVSAASK: the AmyQ secretion efficiency was determined as 1.08.

In turn, MRKTIFAFLTGLMMFKRRKKKASASPD returned an AmyQ secretion efficiency of 7.76.

Consider MKKIWIGMLAAAVLLLSVFAMVPKVSLADAA, for which the AmyQ secretion efficiency was 4.61.

For MPYLKRVLLLLVTGLFMSLFAVTATASTQTG, the AmyQ secretion efficiency amounted to 1.44.

For MTKKAKKKKLVCVLLISGWLAPAASASAQTT, the AmyQ secretion efficiency turned out to be 2.39.

Regarding MFNRLFRVCKKKRKRMAFTLPNSVYAQKP, the AmyQ secretion efficiency came out at 7.15.

MKKWLIIAVSLAIAIVLFMYTKGEAKTAGM showed an AmyQ secretion efficiency of 4.28.

MKKQIITATTAVVLGSTLFAGARSAQSI: the AmyQ secretion efficiency was 3.67.

As for MKKAWFLPLVCVLLISGWLAPAASASAQTT, the AmyQ secretion efficiency was found to be 2.33.

In turn, MTKLKMLSMLTVMIASLFIFSKKRRRKALAVQY registered an AmyQ secretion efficiency of 7.47.

The sequence MKKVLMAFIICLSLILTLTSVIFISVLAAPPSGAKAESV had an AmyQ secretion efficiency of 2.47.

Take MKLSVKIAGVLTVAAAAMTAKMYRTAKGN: the AmyQ secretion efficiency came to 7.39.

For the sequence MGRIKTKITILLVLLLLLAGGYMYIN, the AmyQ secretion efficiency is 5.89 and 6.33 and 5.86.

MKKRLIAPMLLSAASLAFFAMSGSAQQAAY: the AmyQ secretion efficiency stood at 8.53.

Take MKKAFLVFLSVVLVTTVFLVKQQESVLQAKQL: the AmyQ secretion efficiency was determined as 4.04.

Regarding MKRSISIFITCLLITLLTMGGMIASPRSAAGT, the AmyQ secretion efficiency was determined as 2.42.

MKKWIYVVLVLSIAGIGGFSVHDASS gave an AmyQ secretion efficiency of 7.82.

Take MKKRLIGFLVLVPALIMSGITLIEINKK: the AmyQ secretion efficiency is 7.02.

“MRPVFPLILSAVLFLSCFSTSVAITVTFGARQTEASASKR” yielded an AmyQ secretion efficiency of 3.9.

As to MAIIIAIIAAVIVIAALITFNVRNSSPG, the AmyQ secretion efficiency was 8.62.

MPIKKKVMMCLAVTLVFGSMSFPTLTNSGEFKE displayed an AmyQ secretion efficiency of 5.74.

The sequence MKRITINIRRKKIAAAVISLTGTAEAAEK yielded an AmyQ secretion efficiency of 6.82.

On to MHLIRAAGAVCLAVVLIAGCRFNEDQHQAEGENT, for which the AmyQ secretion efficiency is 5.94 and 6.42.

As to MKKTIMSFVAVAALSTTAFGAHASLKEI, the AmyQ secretion efficiency worked out at 6.92.

MKKVMLATALFLGLTPDGANAADL gave an AmyQ secretion efficiency of 4.

With MRKRKKRLSVAVAASFMSLSISLPGVQAAEG, the AmyQ secretion efficiency came out at 2.16.

Consider MNKKYFVLIVCIIFTSALFPTFSSVTTAQG, for which the AmyQ secretion efficiency came to 1.05.

MKKCLLFLTTIALILSLSTTAFAKNT gave an AmyQ secretion efficiency of 1.16.

The record behind these values is the supplement of paper PMC9942255.
